Experiment [1] concerns the target Aβ1-42 peptide. In words: cell-based or functional assay.
Experiment [2] has as its target Aβ1-42 peptide. In words: cell-based or functional assay. This is another data set of the same source.

Take HKQLVFFEED [H101]: in the experiment with Aβ1-42 peptide [1], the “Inhibition (%) of Aβ1-42 aggregation and fibril formation, ThT fluorescence, 44.30 µmol/L peptide with 11.07 µmol/L Aβ1-42, 37° C., 24 h” value (shortened to “Inhibition (%)”) was 24.8%. Take HKQLPFFEED [H102]: the “T1/2, time point at which the ThT fluorescence intensity reaches the half-peak” value in the experiment with Aβ1-42 peptide [2] is 96 h. In addition, the “Inhibition (%)” value with Aβ1-42 peptide [1] was determined as 27.8%. As to HQKLVFFAED [H103], the “Inhibition (%)” value with Aβ1-42 peptide [1] was 14.9%.
